{"source": "patent US20260029420A1", "about": "“ANTI-CB2 ANTIBODIES AND THEIR USE IN A FLOW CYTOMETRY ASSAY TO MEASURE CELL SURFACE CB2 EXPRESSION” (Hoffmann-La Roche Inc., priority 2022, published 2026)", "molecules": {"B1": {"name": "hCB2-1/622: murine IgG3 monoclonal anti-human CB2 antibody, VH SEQ ID NO: 1, VL SEQ ID NO: 2, HC SEQ ID NO: 3, LC SEQ ID NO: 4 (antibody)", "heavy": "EVQLQQSGPELVKPGASVKISCKTSGYTFTEYTMHWVRQSHGKSLEWIGGIDRYNGDTYYNQKFKDKATLTVDRSSSTAYMELRSLTSEDSAVYFCARNGAMDYWGQGISVTVSSATTTAPSVYPLVPGCSDTSGSSVTLGCLVKGYFPEPVTVKWNYGALSSGVRTVSSVLQSGFYSLSSLVTVPSSTWPSQTVICNVAHPASKTELIKRIEPRIPKPSTPPGSSCPPGNILGGPSVFIFPPKPKDALMISLTPKVTCVVVDVSEDDPDVHVSWFVDNKEVHTAWTQPREAQYNSTFRVVSALPIQHQDWMRGKEFKCKVNNKALPAPIERTISKPKGRAQTPQVYTIPPPREQMSKKKVSLTCLVTNFFSEAISVEWERNGELEQDYKNTPPILDSDGTYFLYSKLTVDTDSWLQGEIFTCSVVHEALHNHHTQKNLSRSPGK", "light": "DVVMTQTPLSLPVSLGDQASISCRSSQSLVHSNGNTYLHWFLQKPGQSPKLLIYKVSIRFSGVPDRFSGSGSGTDFTLKISRVEAEDLGVYFCSQSTHVPPLTFGAGTKLELKRADAAPTVSIFPPSSEQLTSGGASVVCFLNNFYPKDINVKWKIDGSERQNGVLNSWTDQDSKDSTYSMSSTLTLTKDEYERHNSYTCEATHKTSTSPIVKSFNRNEC"}}, "format_in_all_cases": "binding", "key": {"[1]": {"tested_on": "CHODukx negative", "experiment": "Western blot of cell lysates, negative control", "design": "key: “−” no signal; “+”-“+++++” signal intensity; “+”-“+++++” signal intensity; “+”-“+++++” signal intensity; “+”-“+++++” signal intensity; “+”-“+++++” signal intensity", "conditions": "CHODukx negative lysate", "procedure": "(§1) The positive clones (Table 1) were further characterized by immunofluorescence (IF; Table 2), Western Blot (Table 3, 1) and Immune precipitation (Table 4, 2) on full length hCB2, hCB1, mCB2 stable-transfected CHO-cell lines in addition to the 2 pANITA constructs.\nFor Western blot analysis, cells were collected using enzyme free dissociation buffer (Cell dissociation buffer enzyme-free Hanks'-based, Gibco), and washed two times with PBS. To prepare cell lysate, 10^6 cells were lysed with 0.1 ml of lysis buffer (1% NP40, 10% glycerol, 2 mM EDTA, 137 mM NaCl, 20 mM TrisHCl, pH8, Protease Inhibitors) for 10 min on ice. The lysate was cleared by centrifugation at 20′000 g for 5 min. For SDS-PAGE cell lysate was resolved on precast 4-12% gradient gels (NuPAGE® Novex 4-12% Bis-Tris Gel, Invitrogen) with MES running buffer according to the manufacturer's directions. The separation of proteins was visualized by Colloidal Blue staining. The proteins were electrophoretically transferred to nitrocellulose membrane using a dry-blotting system (iBlot, Invitrogen). After blocking the membrane for 16 h in blocking buffer (5% Milk in PBS) at 4° C., specific proteins were detected with appropriate dilutions of mAbs in blocking buffer for 1 h at approximately 20° C. […]"}, "[2]": {"target": "T1, CHODukx CRE hCB1 Cl.20 (Homo sapiens, UniProt P21554)", "T1 construct": "expressed in transfected cells", "T1 sequence (P21554 whole entry)": "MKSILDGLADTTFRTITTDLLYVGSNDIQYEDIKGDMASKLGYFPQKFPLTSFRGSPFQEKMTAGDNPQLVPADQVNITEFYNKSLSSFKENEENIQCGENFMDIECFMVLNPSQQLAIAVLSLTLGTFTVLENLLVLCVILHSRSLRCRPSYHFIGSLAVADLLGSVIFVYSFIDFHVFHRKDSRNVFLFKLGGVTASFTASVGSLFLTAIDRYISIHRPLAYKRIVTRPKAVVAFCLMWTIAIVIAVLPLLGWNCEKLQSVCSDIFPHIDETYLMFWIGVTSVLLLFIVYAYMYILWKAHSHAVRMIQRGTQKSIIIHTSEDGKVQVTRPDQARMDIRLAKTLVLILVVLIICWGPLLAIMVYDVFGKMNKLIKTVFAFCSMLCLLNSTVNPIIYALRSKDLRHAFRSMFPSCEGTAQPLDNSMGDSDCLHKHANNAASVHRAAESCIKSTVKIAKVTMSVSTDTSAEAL", "experiment": "Immunoprecipitation from whole cell lysates", "design": "key: “−” no signal; “+”-“+++++” signal intensity; “+”-“+++++” signal intensity; “+”-“+++++” signal intensity; “+”-“+++++” signal intensity; “+”-“+++++” signal intensity", "conditions": "CHODukx CRE hCB1 Cl.20 lysate", "procedure": "as §1\nFor immunoprecipitation (IP), whole cell lysates were incubated with the respective antibodies. IP was performed according to established protocols and subsequent western blot as described herein above."}, "[3]": {"target": "T2, cell surface CB2 on B-cells (Homo sapiens, UniProt P34972)", "T2 construct": "measured in whole blood samples from nine different healthy human volunteers of working-age; endogenous in cells; host or cells: B-cells (and basophils and other leukocytes) in human whole blood", "T2 sequence (P34972 whole entry)": "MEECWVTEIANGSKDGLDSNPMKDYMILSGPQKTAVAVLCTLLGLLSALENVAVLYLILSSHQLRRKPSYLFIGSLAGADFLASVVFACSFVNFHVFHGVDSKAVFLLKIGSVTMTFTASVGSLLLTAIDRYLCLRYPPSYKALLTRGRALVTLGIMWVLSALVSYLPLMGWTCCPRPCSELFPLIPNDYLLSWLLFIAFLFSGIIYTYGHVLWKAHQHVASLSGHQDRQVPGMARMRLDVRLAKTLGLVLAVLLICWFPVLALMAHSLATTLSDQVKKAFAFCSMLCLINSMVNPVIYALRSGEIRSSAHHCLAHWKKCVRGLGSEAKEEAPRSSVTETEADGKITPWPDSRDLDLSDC", "experiment": "Flow cytometry detection of baseline cell surface CB2 on B-cells in untreated whole blood", "conditions": "increasing antibody concentrations", "procedure": "FIG. 5A and FIG. 5B: Comparison of different anti-hCB2 antibodies in detecting cell surface CB2 expression on B-cells. FIG. 5A: Flow cytometric analysis with increasing concentrations of hCB2 antibody 1/622 (black dots) and hCB2 clone 352110 (R&D Systems; dark rectangle). A fluorescence minus one (FMO) serves as control as well as the secondary PE labeled antibody alone (0 μg antibody/sample). FIG. 5B: Flow cytometric analysis with increasing concentrations of mouse IgG3 isotype control clone B10 (SBA; open dots), hCB2 antibody 1/622 (black dots), mouse IgG2b isotype control clone 26114 (R&D Systems; open rectangles) and hCB2 clone 352110 (R&D Systems; dark rectangles). The secondary PE labeled antibody alone serves as 0 μg antibody/sample control.\nDetection of baseline expression of cell surface CB2 on B-cells was assessed for clone 1/622 and compared to a commercially available hCB2 antibody (R&D Systems; clone 352110) (5). The flow cytometry experiment was performed as described in Example 3 yet using untreated whole blood samples and using increasing concentrations of the respective anti-human CB2 antibody. […]\nFor determination of cell surface expression of CB2 on B-cells, median fluorescent intensity (MFI) was analyzed by gating around the CD45^+ CD3^− CD14^− CD19^+ B-cells (see gating strategy in FIG. 6A to FIG. 6E) and acquiring a minimum of 2000 events in this gate (FIG. 6F). […]"}}, "data": [{"molecule": "B1", "values": [{"measurement": "Western Blot signal intensity", "setting": "[1]", "result": "−"}, {"measurement": "Immunoprecipitation signal intensity", "setting": "[2]", "result": "−"}, {"measurement": "Median fluorescence intensity on B-cells", "setting": "[3]", "result": "dose-dependent increase"}]}]}
